Changes are numbered by the printed parent chain. Blank lines part the entries; values can stand above or below the binder they belong to.
Target: T1, neuropilin-1 (NRP1) on HEK293 cells overexpressing NRP1 (UniProt O14786 22-923, limits assumed)
T1 construct: whole, on cells
Assay: flow cytometry, HEK293-NRP1 vs HEK293

- 100 nM FACS (MFI Ratio): 3
B1: NRP1-278 (antibody, IgG2, V domains shown)
VH: EVQLLESGGGLVQPGGSLRLSCAASGFTFRRYAMSWVRQAPGKGLEWVSAISGSGDRTYYADSVKGRFTISRDNSKNTLYLQMNSLRAEDTAVYYCARDRGLRYFDWSFDYWGQGTLVTVSS
VL: DIQMTQSPSSLSASVGDRVTITCRTSQSISSYLNWYQQKPGKAPKLLIYAAAGLRGGVPSRFSGSGSGTDFTLTISSLQPEDFATYYCQQSFTTPWTFGGGTKVEIK

- 100 nM FACS (MFI Ratio): 0.7
B2: NRP1-279 (antibody, IgG2, V domains shown)
VH: EVQLLESGGGLVQPGGSLRLSCAASGFTFSRHAMSWVRQAPGKGLEWVSGISGSGGRTHYADSVKGRFTISRDNSKNTLYLQMNSLRAEDTAVYYCARDPSTIAARRANHYYMDVWGQGTLVTVSS
VL: B1 VL with S31N, Y32F, A50R, A52S, G53T, R55Q, G56T, F92Y, T93K, W96R

- 100 nM FACS (MFI Ratio): 0.7
B3: NRP1-258 (antibody, IgG2, V domains shown)
VH: EVQLLESGGGLVQPGGSLRLSCAASGFRFGNYAMSWVRQAPGKGLEWVSAISGSAGRTYYADSVKGRFTISRDNSKNTLYLQMNSLRAEDTAVYYCARAPFQSRIGLAGTRRHKRDNFDQWGQGTLVTVSS
VL: DIQMTQSPSSLSASVGDRVTITCRASQSIDNFLNWYQQKPGKAPKLLIYGASKLQRGVPSRFSGSGSGTDFTLTISSLQPEDFATYYCQQSYSSPPVTFGGGTKVEIK

- 100 nM FACS (MFI Ratio): 0.9
B4: NRP1-257 (antibody, IgG2, V domains shown)
VH: EVQLLESGGGLVQPGGSLRLSCAASGFTFSRYGMSWVRQAPGKGLEWVSTISGSGGSTSYADSVKGRFTISRDNSKNTLYLQMNSLRAEDTAVYYCARASHVDIPRRAPKRRHSFDSWGQGTLVTVSS
VL: DIQMTQSPSSLSASVGDRVTITCRASQTISNYVNWYQQKPGKAPKLLIYAASSLHAGVPSRFSGSGSGTDFTLTISSLQPEDFATYYCQQGYSTPLTFGGGTKVEIK

- 100 nM FACS (MFI Ratio): 3
B5: NRP1-264 (antibody, IgG2, V domains shown)
VH: EVQLLESGGGLVQPGGSLRLSCAASGFTFRGYAMSWVRQAPGKGLEWVSTISGSGGVTYYADSVKGRFTISRDNSKNTLYLQMNSLRAEDTAVYYCARVRVDARPRGMMSRYYGMDVWGQGTLVTVSS
VL: B4 VL with T28S, Y32R, V33L, A50G, H55Q, A56P, G91S, Y92F, S93N, L96R

- 100 nM FACS (MFI Ratio): 2.6
B6: NRP1-276 (antibody, IgG2, V domains shown)
VH: EVQLLESGGGLVQPGGSLRLSCAASGFPFTSYAMSWVRQAPGKGLEWVSAISSSGTGTYYADSVKGRFTISRDNSKNTLYLQMNSLRAEDTAVYYCARLKRGGTNLVRKATRYQFYGMDAWGQGTLVTVSS
VL: B4 VL with T28S, I29V, N31R, V33L, A50G, S53T, H55Q, G91S, S93T

- 100 nM FACS (MFI Ratio): 3
B7: NRP1-270 (antibody, IgG2, V domains shown)
VH: EVQLLESGGGLVQPGGSLRLSCAASGFTFSIYAMGWVRQAPGKGLEWVSSISGRGGSIYYADSVKGRFTISRDNSKNTLYLQMNSLRAEDTAVYYCARSAGTFDYWGQGTLVTVSS
VL: B4 VL with T28S, S30R, N31S, Y32H, V33L, L54V, H55E, A56S, G91S, T94A

- 100 nM FACS (MFI Ratio): 2.5
B8: NRP1-265 (antibody, IgG2, V domains shown)
VH: EVQLLESGGGLVQPGGSLRLSCAASGFTFGKYAMTWVRQAPGKGLEWVSGISGSGGRTNYADSVKGRFTISRDNSKNTLYLQMNSLRAEDTAVYYCARDFVAWRGGFRRYYSYNGMDVWGQGTLVTVSS
VL: DIQMTQSPSSLSASVGDRVTITCRASQYVSTYLNWYQQKPGKAPKLLIYGTSRLQSGVPSRFSGSGSGTDFTLTISSLQPEDFATYYCQQSYSTPKTFGGGTKVEIK

- 100 nM FACS (MFI Ratio): 2.1
B9: NRP1-268 (antibody, IgG2, V domains shown)
VH: EVQLLESGGGLVQPGGSLRLSCAASGFIFSTYALSWVRQAPGKGLEWVSGINGSGASTYYADSVKGRFTISRDNSKNTLYLQMNSLRAEDTAVYYCAREGQGWTSLLPRPSQRRPQRRPPYYGLDVWGQGTLVTVSS
VL: B8 VL with A25G, Y28S, V29I, S30T, T31R, Y32F, G50A, Y92H, T94F, K96R

- 100 nM FACS (MFI Ratio): 1
B10: NRP1-274 (antibody, IgG2, V domains shown)
VH: EVQLLESGGGLVQPGGSLRLSCAASGFTFSKYAMNWVRQAPGKGLEWVSTISGSGGSTSYADSVKGRFTISRDNSKNTLYLQMNSLRAEDTAVYYCARGQDIKRNVMRRGGRLNWFDPWGQGTLVTVSS
VL: B8 VL with Y28S, V29I, S30G, T31S, Y32N, T51A, S52T, R53N, S93R, K96L

— US20230265198A1 (TWIST BIOSCIENCE, published 2023)
